We go through one molecule from patent US20190144556A1 (published 2019).

Test [1] deals with T1, peptide fragment defined by residues 130-149 of SEQ ID NO: 7 within human TNFR2 (KQEGCRLCAPLRKCRPGFGV) (human).
T1 peptide: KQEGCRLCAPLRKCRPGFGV
The experiment in a line: peptide binding; assay not given.

Another test concerns the target T2, recombinant human TNFR2 (human, UniProt P20333 23-257, limits assumed).
T2 construct: also called tumor necrosis factor receptor 2; full-length target protein
T2 sequence: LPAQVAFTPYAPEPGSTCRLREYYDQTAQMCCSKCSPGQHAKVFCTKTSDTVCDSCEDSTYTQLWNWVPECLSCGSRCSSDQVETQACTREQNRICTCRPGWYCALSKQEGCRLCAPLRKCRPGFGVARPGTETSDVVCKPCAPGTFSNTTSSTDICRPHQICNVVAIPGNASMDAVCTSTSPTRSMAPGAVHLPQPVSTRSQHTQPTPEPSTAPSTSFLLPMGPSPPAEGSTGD
In words: SPR (BIACORE 3000), biotinylated antibody captured on streptavidin, recombinant human TNFR2 injected. On the procedure:
The affinities of antagonistic TNFR2 antibodies for recombinant human TNFR2 were measured using BIACORE™ Analysis Services (Precision Antibody). Briefly, the antibody was biotinylated at a 5:1 stoichiometric ratio using biotinyl-LC-LC-[…] (Thermo-Fisher) in PBS. Excess biotinylation reagent was removed by centrifugation chromatography and the biotinylated antibody was captured on 3000 RU of streptavidin surface to a level of 100 RU. […] Analysis of the kinetics of antigen binding was performed at a flow of 60 μL/min with 2 min injections. Antibodies were injected at a concentration of 1 mg/ml to the final capture of 100 RU. The instrument used was BIACORE™ 3000 with the BioCap chip (GE Healthcare). Double reference method was used for analysis. Reference channel contained the identical level of streptavidin.
(In general: SPR reads the build-up and loss of mass on a sensor chip optically.)

Test [2] has as its target T3, linear peptide containing amino acids 128-155 of SEQ ID NO: 7 within human TNFR2 (human).
T3 construct: Linear peptide purchased from GenScript and coated on the plate
T3 peptide: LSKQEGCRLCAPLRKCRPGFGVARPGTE
In words: ELISA, linear peptide coated at 1 µg/well, antibody 0.1 µg/well. The protocol: (§1) ELISA was also used to determine linear epitopes present on the extracellular surface of TNFR2. Linear peptides corresponding to various regions within the TNFR2 primary sequence were purchased from GenScript (Piscataway, N.J.), diluted in coating buffer and placed on Immulon 4HBX Flat Bottom Microtiter Plates (Thermo Scientific) at a concentration of 1 μg/well. Primary TNFR2 antagonistic antibodies (0.1 μg/well) were incubated with substrates. Secondary antibodies against rodent IgG were used to detect the primary antibodies. Absorbance was measured using the SPECTRAMAX® 190 Absorbance Plate Reader and analyzed with SoftMax Pro 6.3 (Molecular Devices).
(In general: An ELISA detects its analyte on a solid surface through an enzyme-linked reagent.)

Test [3] has as its target T4, linear peptide containing amino acids 112-139 of SEQ ID NO: 7 within human TNFR2 (human).
T4 construct: Linear peptide purchased from GenScript and coated on the plate
T4 peptide: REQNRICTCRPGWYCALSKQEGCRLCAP
The description is as above. The protocol: as §1

B1: antagonistic TNFR2 antibody TNFRAB1 (antibody, V domains shown)
VH: EVQLQESGGGLVKPGGSLKLSCAASGFTFSSYVMSWVRQTPEKRLEWVATISSGGSYTYYPDSVKGRFTISRDNAKNTLYLQMSSLRSEDTAMYYCARQRVDGYSSYWYFDVWGAGTAVTVSS
VL: DIVLTQSPAIMSASPGEKVTITCSASSSVYYMYWFQQKPGTSPKLWIYSTSNLASGVPVRFSGSGSGTSYSLTISRMEAEDAATYYCQQRRNYPYTFGGGTKLEIKR
notes: Murine monoclonal antibody, full-length IgG; For SPR the antibody was biotinylated and captured on streptavidin; also called TNFR2 antagonist 1
In general, Kd refers to a measure of binding affinity in units of concentration. By koff is commonly meant the first-order rate constant of dissociation. Broadly, the kon is the second-order rate constant of association. Consider B1, for which the “fold greater affinity than for the peptide fragment defined by residues 48-67 of SEQ ID NO: 7 (…, SEQ ID NO: 18)” value in test [1] stood at 40 fold. In the test with recombinant human TNFR2, the dissociation constant Kd is roughly 0.0444 nM, the koff was 0.000221 s⁻¹ and the on-rate constant (kon) was 4.98e+06 M⁻¹ s⁻¹. For the same molecule, the binding result in test [2] is recorded as “binds”. Besides, the binding result in test [3] is on record as “binds”.
